Experiments:
[1] = molecular target: T1, Sce7 (I-SceI D44N/D145A, non-cleaving) (UniProt P03882 P03882:1-235, D44N,D145A); experiment: EMSA; 20 mM Tris pH 9.0, 25 mM NaCl, 10 mM CaCl2, 37 C; conditions: tags: 6xHis N-terminal with TEV site
T1 sequence: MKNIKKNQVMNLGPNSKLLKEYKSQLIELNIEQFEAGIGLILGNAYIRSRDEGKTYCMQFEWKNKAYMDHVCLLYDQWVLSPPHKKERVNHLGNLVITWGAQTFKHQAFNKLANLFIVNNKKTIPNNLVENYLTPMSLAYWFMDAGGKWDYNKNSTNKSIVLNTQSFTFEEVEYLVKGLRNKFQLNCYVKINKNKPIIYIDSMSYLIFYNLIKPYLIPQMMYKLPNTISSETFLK
Experimental: The binding affinities for the I-SceI recognition sites were determined using a gel-shift assay and are depicted in Table 3.
To measure the dissociation constants, the binding protein of interest, at a range of concentrations between 2 and 400 nM, was incubated with 10 nM DNA substrate in 20 ìL of 20 mM Tris.HCl, pH 9.0, 25 mM NaCl, 10 mM CaCl2, 1 mM DTT, 2% glycerol, and 0.1 mg/mL BSA, for 20 minutes at 37° C. (Sce7 and CdnDI) or 42° C. (CdnDII). Two ìL of 10′ loading buffer were added to each sample, and 10 ìL of each mixture were loaded onto 6% polyacrylamide DNA retardation gels (Invitrogen), and run for 30 minutes at 175 V. The gels were stained with SYBR Gold (Invitrogen) and visualized with ultraviolet light. DNA-containing bands were quantified by densitometry as described above. Concentrations of bound and free protein were calculated from the input amount of DNA and from ratios of band intensities, and the data were fit using Origin software (Originlab, Northampton, Mass.) to the following equation: […]

I-SceI (wild type) = molecular target: T2, I-SceI (wild type) (UniProt P03882 P03882:1-235); experiment: EMSA; 20 mM Tris pH 9.0, 25 mM NaCl, 10 mM CaCl2, 37 C?; conditions: tags: 6xHis N-terminal with TEV site (as for variants)
T2 sequence: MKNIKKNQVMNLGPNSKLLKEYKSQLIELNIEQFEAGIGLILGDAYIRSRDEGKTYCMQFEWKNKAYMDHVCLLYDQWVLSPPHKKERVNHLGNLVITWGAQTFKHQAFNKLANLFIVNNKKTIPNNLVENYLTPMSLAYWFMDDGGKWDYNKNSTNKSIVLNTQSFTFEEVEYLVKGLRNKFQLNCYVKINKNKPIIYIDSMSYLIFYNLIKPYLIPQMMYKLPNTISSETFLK

I-CreI D20N/Q47A = molecular target: T3, I-CreI D20N/Q47A (UniProt P05725 P05725:1-163, D20N,Q47A); experiment: EMSA; 5 nM DNA, 20 mM Tris pH 9.0, 37 C; printed D2ON; conditions: tags: 6xHis N-terminal with TEV site; chain copies: 2; EcoRI/BamHI overhangs
T3 sequence: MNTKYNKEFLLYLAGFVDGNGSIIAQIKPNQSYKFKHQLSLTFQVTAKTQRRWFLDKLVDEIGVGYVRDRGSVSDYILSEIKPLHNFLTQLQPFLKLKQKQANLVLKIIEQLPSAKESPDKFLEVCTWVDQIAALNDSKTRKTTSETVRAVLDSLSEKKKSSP
Experimental: (§1) Various concentrations of I-SceI or I-CreI (generally between 2.5 and 50 nM) were mixed with 5 nM DNA in 20 mM tris.HCl, 100 ug/mL bovine serum albumin, pH 8.0 (for I-SceI variants) or pH 9.0 (for I-CreI variants) in a total volume of 10 ìL. After incubation for 20 minutes at 37° C., 1 ìL of 10× DNA retardation gel loading buffer (Invitrogen) was added and the samples were loaded onto a 1 mm thick DNA retardation gel (Invitrogen). Electrophoresis was performed for 45 minutes at 175 Volts in 0.5× TBE buffer (Invitrogen). Gels were stained for 45 minutes with SYBR Gold stain (Invitrogen) and visualized by UV illumination. Densitometry was performed on a digital image of the gel to determine the relative intensities of the bands corresponding to bound and unbound DNA. Intensities of bound and unbound DNA were used to determine the concentrations of bound and free enzyme at each initial concentration. […] Binding affinities (dissociation constants, Kd) were determined by plotting the concentration of bound enzyme on the y-axis and the concentration of free enzyme on the x-axis for each data point and fitting the data to a rectangular hyperbola using standard nonlinear least-squares fitting procedures, using the equation y=([DNA]*x)/(Kd+x).

I-SceI D44A/D145N = molecular target: T4, I-SceI D44A/D145N (UniProt P03882 P03882:1-235, D44A,D145N); experiment: EMSA; 5 nM DNA, 20 mM Tris pH 8.0, 37 C; conditions: tags: 6xHis N-terminal with TEV site; EcoRI/BamHI overhangs
T4 sequence: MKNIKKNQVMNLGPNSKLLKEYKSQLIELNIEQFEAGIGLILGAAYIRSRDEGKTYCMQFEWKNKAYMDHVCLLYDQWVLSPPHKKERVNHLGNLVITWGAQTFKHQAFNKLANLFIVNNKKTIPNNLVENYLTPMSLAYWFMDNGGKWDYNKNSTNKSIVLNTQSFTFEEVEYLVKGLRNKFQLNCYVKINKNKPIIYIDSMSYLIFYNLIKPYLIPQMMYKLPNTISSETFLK
Experimental: as §1

B1: 80-bp I-SceI site duplex (dsDNA)
DNA 1: GAATTCTGGTTCCGAAGCCTGTCCTGCACGCTAGGGATAACAGGGTAATAATATATGAATCCAAACTAGAGCGGGGCTCT
DNA 2: AGAGCCCCGCTCTAGTTTGGATTCATATATTATTACCCTGTTATCCCTAGCGTGCAGGACAGGCTTCGGAACCAGAATTC
[1]
  Kd: 0.013 µM
I-SceI (wild type)
  Kd: 0.062 µM

B2: pSCI insert with I-SceI and I-CreI sites (142 bp) (dsDNA)
DNA 1: AATTCTGGTTCCGAAGCCTGTCCTGCACGCTAGGGATAACAGGGTAATAATATATGAATCCAAACTAGAGCGGGGCTCTTGACGTTTGGCTCAAAACGTCGTGAGACAGTTTGGTCAGTTGTAAATATCTAATATTCCAATG
DNA 2: GATCCATTGGAATATTAGATATTTACAACTGACCAAACTGTCTCACGACGTTTTGAGCCAAACGTCAAGAGCCCCGCTCTAGTTTGGATTCATATATTATTACCCTGTTATCCCTAGCGTGCAGGACAGGCTTCGGAACCAG
I-CreI D20N/Q47A
  binding result: binds
I-SceI D44A/D145N
  binding result: binds

From US20110117625, “Engineered Nucleases and Their Uses for Nucleic Acid Assembly” (published 2011)
